{
  "source": "patent US20050037012A1",
  "molecules": {"B1": {"name": "human IL-28B (ligand)", "chain": "VPVARLRGALPDARGCHIAQFKSLSPQELQAFKRAKDALEESLLLKDCKCRSRLFPRTWDLRQLQVRERPVALEAELALTLKVLEATADTDPALGDVLDQPLHTLHHILSQLRACIQPQPTAGPRTRGRLHHWLHRLQEAPKKESPGCLEASVTFNLFRLLTRDLNCVASGDLCV"}, "B2": {"name": "human zcytor19-Fc homodimer soluble receptor (Fc fusion, not shown: a dimerising Fc or GST)", "chain": "RPRLAPPQNVTLLSQNFSVYLTWLPGLGNPQDVTYFVAYQSSPTRRRWREVEECAGTKELLCSMMCLKKQDLYNKFKGRVRTVSPSSKSPWVESEYLDYLFEVEPAPPVLVLTQTEEILSANATYQLPPCMPPLDLKYEVAFWKEGAGNKTLFPVTPHGQPVQITLQPAASEHHCLSARTIYTFSVPKYSKFSKPTCFLLEVPEANWA"}, "B3": {"name": "murine zcytor19-Ig homodimer soluble receptor (Fc fusion, mouse, UniProt Q8CGK5 21-227, looked up, not shown: a dimerising Fc or GST)", "chain": "RPRLAPPRNVTLFSQNFTVYLTWLPGLGSPPNVTYFVTYQSYIKTGWRPVEHCAGIKALVCPLMCLKKLNLYSKFKGRVQAASAHGRSPRVESRYLEYLFDVELAPPTLVLTQMEKILRVNATYQLPPCMPSLELKYQVEFWKEGLGSKTLFPDTPYGQPVQIPLQQGASRRHCLSARTVYTLIDIKYSQFSEPSCIFLEAPGDKRA"}},
  "test_in_all_cases": "cell-based or functional assay",
  "key": {"[1]": {"target": "human IL-28 receptor (IL-28 receptor alpha subunit with CRF2-4) on 293 HEK cells (human)", "sequence (Q8IU57 whole entry, chain 1 of 2)": "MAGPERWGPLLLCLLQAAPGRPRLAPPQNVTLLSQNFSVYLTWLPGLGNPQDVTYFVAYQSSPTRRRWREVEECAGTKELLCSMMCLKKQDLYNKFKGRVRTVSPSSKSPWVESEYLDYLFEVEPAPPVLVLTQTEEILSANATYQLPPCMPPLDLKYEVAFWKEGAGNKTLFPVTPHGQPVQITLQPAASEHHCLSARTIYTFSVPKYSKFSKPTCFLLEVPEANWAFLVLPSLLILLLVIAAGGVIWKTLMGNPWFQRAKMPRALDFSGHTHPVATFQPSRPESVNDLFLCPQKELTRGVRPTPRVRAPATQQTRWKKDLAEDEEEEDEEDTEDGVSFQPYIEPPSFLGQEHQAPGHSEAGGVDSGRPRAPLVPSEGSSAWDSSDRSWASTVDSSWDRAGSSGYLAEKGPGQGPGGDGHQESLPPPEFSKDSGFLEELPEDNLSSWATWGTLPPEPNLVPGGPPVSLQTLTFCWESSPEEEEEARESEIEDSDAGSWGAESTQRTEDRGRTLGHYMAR", "sequence (Q08334 whole entry, chain 2 of 2, further chain)": "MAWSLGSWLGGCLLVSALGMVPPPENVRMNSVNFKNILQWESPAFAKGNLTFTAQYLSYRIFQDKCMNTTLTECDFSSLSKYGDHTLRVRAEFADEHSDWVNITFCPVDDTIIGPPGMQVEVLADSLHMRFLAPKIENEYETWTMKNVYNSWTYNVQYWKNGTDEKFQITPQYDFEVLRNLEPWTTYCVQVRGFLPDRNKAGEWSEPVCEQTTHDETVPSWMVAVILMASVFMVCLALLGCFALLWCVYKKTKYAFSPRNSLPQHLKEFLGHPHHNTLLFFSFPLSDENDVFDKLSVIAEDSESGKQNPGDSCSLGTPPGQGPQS"}, "human IL-28A (human)": {"target": "T1, human IL-28A (human) (UniProt Q8IZJ0)", "T1 sequence": "B1 chain with R7H, K49R, R51H, V71M, G95V, L112F, H135Y"}, "human IL-29 (human)": {"target": "human IL-29 (human) (UniProt Q8IU54)", "sequence (Q8IU54 20-200)": "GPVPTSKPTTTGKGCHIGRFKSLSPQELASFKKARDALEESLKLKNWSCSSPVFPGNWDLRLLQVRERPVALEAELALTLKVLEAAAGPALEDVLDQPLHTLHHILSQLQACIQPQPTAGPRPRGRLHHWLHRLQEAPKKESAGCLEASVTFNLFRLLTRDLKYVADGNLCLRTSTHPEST"}, "[2]": {"target": "T2, mouse IL-28 (zcyto24) (mouse) (UniProt Q4VK74)", "T2 sequence": "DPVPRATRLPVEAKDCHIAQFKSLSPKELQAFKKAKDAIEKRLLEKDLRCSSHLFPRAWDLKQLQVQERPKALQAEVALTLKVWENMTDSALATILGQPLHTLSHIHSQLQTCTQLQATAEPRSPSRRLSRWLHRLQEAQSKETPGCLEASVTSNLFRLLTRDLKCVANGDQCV"}},
  "note": "Changes are numbered by the printed parent chain.",
  "data": [
    {"molecule": "huIL10 (from UniProt P22301 19-178) (ligand)", "values": [
      {"measurement": "ISRE-luciferase signaling, fold induction over medium alone; HuIL10 at 100 ng/ml; 293 cells transfected with ISRE-Luc. and IL-28R (fold induction)", "setting": "[1]", "result": 0.5}
    ]},
    {"molecule": "human CRF2-4-Fc homodimer soluble receptor (Fc fusion)", "values": [
      {"measurement": "Percent Inhibition of Ligand-induced ISRE Signaling by Soluble Receptors; 10 ng/ml ligand, 10 micrograms/ml soluble receptor; 293 HEK cells overexpressing zcytor19", "setting": "human IL-28A (human)", "result": 80, "unit": "%"},
      {"measurement": "Percent Inhibition of Ligand-induced ISRE Signaling by Soluble Receptors; 10 ng/ml ligand, 10 micrograms/ml soluble receptor; 293 HEK cells overexpressing zcytor19", "setting": "human IL-29 (human)", "result": 79, "unit": "%"},
      {"measurement": "Percent Inhibition of Ligand-induced ISRE Signaling by Soluble Receptors; 10 ng/ml ligand, 10 micrograms/ml soluble receptor; 293 HEK cells overexpressing zcytor19", "setting": "[2]", "result": 82, "unit": "%"}
    ]},
    {"molecule": "human zcytor19-Fc/human CRF2-4-Fc heterodimer soluble receptor (Fc fusion)", "values": [
      {"measurement": "Percent Inhibition of Ligand-induced ISRE Signaling by Soluble Receptors; 10 ng/ml ligand, 10 micrograms/ml soluble receptor; 293 HEK cells overexpressing zcytor19", "setting": "human IL-28A (human)", "result": 16, "unit": "%"},
      {"measurement": "Percent Inhibition of Ligand-induced ISRE Signaling by Soluble Receptors; 10 ng/ml ligand, 10 micrograms/ml soluble receptor; 293 HEK cells overexpressing zcytor19", "setting": "human IL-29 (human)", "result": 16, "unit": "%"},
      {"measurement": "Percent Inhibition of Ligand-induced ISRE Signaling by Soluble Receptors; 10 ng/ml ligand, 10 micrograms/ml soluble receptor; 293 HEK cells overexpressing zcytor19", "setting": "[2]", "result": 47, "unit": "%"}
    ]},
    {"molecule": "zcyto10 (from UniProt Q9NYY1 25-176) (ligand)", "values": [
      {"measurement": "ISRE-luciferase signaling, fold induction over medium alone; Zcyto10 at 125 ng/ml; 293 cells transfected with ISRE-Luc. and IL-28R (fold induction)", "setting": "[1]", "result": 1}
    ]},
    {"molecule": "B1", "values": [
      {"measurement": "ISRE-luciferase signaling, fold induction over medium alone; IL-28B at 125 ng/ml; 293 cells transfected with ISRE-Luc. and IL-28R (fold induction)", "setting": "[1]", "result": 104}
    ]},
    {"molecule": "B2", "values": [
      {"measurement": "Percent Inhibition of Ligand-induced ISRE Signaling by Soluble Receptors; 10 ng/ml ligand, 10 micrograms/ml soluble receptor; 293 HEK cells overexpressing zcytor19", "setting": "human IL-28A (human)", "result": 92, "unit": "%"},
      {"measurement": "Percent Inhibition of Ligand-induced ISRE Signaling by Soluble Receptors; 10 ng/ml ligand, 10 micrograms/ml soluble receptor; 293 HEK cells overexpressing zcytor19", "setting": "human IL-29 (human)", "result": 45, "unit": "%"},
      {"measurement": "Percent Inhibition of Ligand-induced ISRE Signaling by Soluble Receptors; 10 ng/ml ligand, 10 micrograms/ml soluble receptor; 293 HEK cells overexpressing zcytor19", "setting": "[2]", "result": 90, "unit": "%"}
    ]},
    {"molecule": "B3", "values": [
      {"measurement": "Percent Inhibition of Ligand-induced ISRE Signaling by Soluble Receptors; 10 ng/ml ligand, 10 micrograms/ml soluble receptor; 293 HEK cells overexpressing zcytor19", "setting": "human IL-28A (human)", "result": 91, "unit": "%"},
      {"measurement": "Percent Inhibition of Ligand-induced ISRE Signaling by Soluble Receptors; 10 ng/ml ligand, 10 micrograms/ml soluble receptor; 293 HEK cells overexpressing zcytor19", "setting": "human IL-29 (human)", "result": 103, "unit": "%"},
      {"measurement": "Percent Inhibition of Ligand-induced ISRE Signaling by Soluble Receptors; 10 ng/ml ligand, 10 micrograms/ml soluble receptor; 293 HEK cells overexpressing zcytor19", "setting": "[2]", "result": 89, "unit": "%"}
    ]}
  ]
}
